Reference: publication PMC9127220 (The Journal of Biological Chemistry, 2022)
Like-named read-outs stand apart in the source and are kept apart here.

B1: MukB (natural protein, Escherichia coli, UniProt P22523 1-1486, looked up)
chain: MIERGKFRSLTLINWNGFFARTFDLDELVTTLSGGNGAGKSTTMAAFVTALIPDLTLLHFRNTTEAGATSGSRDKGLHGKLKAGVCYSMLDTINSRHQRVVVGVRLQQVAGRDRKVDIKPFAIQGLPMSVQPTQLVTETLNERQARVLPLNELKDKLEAMEGVQFKQFNSITDYHSLMFDLGIIARRLRSASDRSKFYRLIEASLYGGISSAITRSLRDYLLPENSGVRKAFQDMEAALRENRMTLEAIRVTQSDRDLFKHLISEATNYVAADYMRHANERRVHLDKALEFRRELHTSRQQLAAEQYKHVDMARELAEHNGAEGDLEADYQAASDHLNLVQTALRQQEKIERYEADLDELQIRLEEQNEVVAEAIERQQENEARAEAAELEVDELKSQLADYQQALDVQQTRAIQYNQAIAALNRAKELCHLPDLTADCAAEWLETFQAKELEATEKMLSLEQKMSMAQTAHSQFEQAYQLVVAINGPLARNEAWDVARELLREGVDQRHLAEQVQPLRMRLSELEQRLREQQEAERLLADFCKRQGKNFDIDELEALHQELEARIASLSDSVSNAREERMALRQEQEQLQSRIQSLMQRAPVWLAAQNSLNQLSEQCGEEFTSSQDVTEYLQQLLEREREAIVERDEVGARKNAVDEEIERLSQPGGSEDQRLNALAERFGGVLLSEIYDDVSLEDAPYFSALYGPSRHAIVVPDLSQVTEHLEGLTDCPEDLYLIEGDPQSFDDSVFSVDELEKAVVVKIADRQWRYSRFPEVPLFGRAARESRIESLHAEREVLSERFATLSFDVQKTQRLHQAFSRFIGSHLAVAFESDPEAEIRQLNSRRVELERALSNHENDNQQQRIQFEQAKEGVTALNRILPRLNLLADDSLADRVDEIRERLDEAQEAARFVQQFGNQLAKLEPIVSVLQSDPEQFEQLKEDYAYSQQMQRDARQQAFALTEVVQRRAHFSYSDSAEMLSGNSDLNEKLRERLEQAEAERTRAREALRGHAAQLSQYNQVLASLKSSYDTKKELLNDLQRELQDIGVRADSGAEERARIRRDELHAQLSNNRSRRNQLEKALTFCEAEMDNLTRKLRKLERDYFEMREQVVTAKAGWCAVMRMVKDNGVERRLHRRELAYLSADDLRSMSDKALGALRLAVADNEHLRDVLRMSEDPKRPERKIQFFVAVYQHLRERIRQDIIRTDDPVEAIEQMEIELSRLTEELTSREQKLAISSRSVANIIRKTIQREQNRIRMLNQGLQNVSFGQVNSVRLNVNVRETHAMLLDVLSEQHEQHQDLFNSNRLTFSEALAKLYQRLNPQIDMGQRTPQTIGEELLDYRNYLEMEVEVNRGSDGWLRAESGALSTGEAIGTGMSILVMVVQSWEDESRRLRGKDISPCRLLFLDEAARLDARSIATLFELCERLQMQLIIAAPENISPEKGTTYKLVRKVFQNTEHVHVVGLRGFAPQLPETLPGTDEAPSQAS
B2: ParC subunit of topoisomerase IV (natural protein, Escherichia coli, UniProt P0AFI2 1-752, looked up)
chain: MSDMAERLALHEFTENAYLNYSMYVIMDRALPFIGDGLKPVQRRIVYAMSELGLNASAKFKKSARTVGDVLGKYHPHGDSACYEAMVLMAQPFSYRYPLVDGQGNWGAPDDPKSFAAMRYTESRLSKYSELLLSELGQGTADWVPNFDGTLQEPKMLPARLPNILLNGTTGIAVGMATDIPPHNLREVAQAAIALIDQPKTTLDQLLDIVQGPDYPTEAEIITSRAEIRKIYENGRGSVRMRAVWKKEDGAVVISALPHQVSGARVLEQIAAQMRNKKLPMVDDLRDESDHENPTRLVIVPRSNRVDMDQVMNHLFATTDLEKSYRINLNMIGLDGRPAVKNLLEILSEWLVFRRDTVRRRLNYRLEKVLKRLHILEGLLVAFLNIDEVIEIIRNEDEPKPALMSRFGLTETQAEAILELKLRHLAKLEEMKIRGEQSELEKERDQLQGILASERKMNNLLKKELQADAQAYGDDRRSPLQEREEAKAMSEHDMLPSEPVTIVLSQMGWVRSAKGHDIDAPGLNYKAGDSFKAAVKGKSNQPVVFVDSTGRSYAIDPITLPSARGQGEPLTGKLTLPPGATVDHMLMESDDQKLLMASDAGYGFVCTFNDLVARNRAGKALITLPENAHVMPPVVIEDASDMLLAITQAGRMLMFPVSDLPQLSKGKGNKIINIPSAEAARGEDGLAQLYVLPPQSTLTIHVGKRKIKLRPEELQKVTGERGRRGTLMRGLQRIDRVEIDSPRRASSGDSEE
B3: MukF (natural protein, Escherichia coli, UniProt P60293 1-440, looked up)
chain: MSEFSQTVPELVAWARKNDFSISLPVDRLSFLLAVATLNGERLDGEMSEGELVDAFRHVSDAFEQTSETIGVRANNAINDMVRQRLLNRFTSEQAEGNAIYRLTPLGIGITDYYIRQREFSTLRLSMQLSIVAGELKRAADAAEEGGDEFHWHRNVYAPLKYSVAEIFDSIDLTQRLMDEQQQQVKDDIAQLLNKDWRAAISSCELLLSETSGTLRELQDTLEAAGDKLQANLLRIQDATMTHDDLHFVDRLVFDLQSKLDRIISWGQQSIDLWIGYDRHVHKFIRTAIDMDKNRVFAQRLRQSVQTYFDEPWALTYANADRLLDMRDEEMALRDEEVTGELPEDLEYEEFNEIREQLAAIIEEQLAVYKTRQVPLDLGLVVREYLSQYPRARHFDVARIVIDQAVRLGVAQADFTGLPAKWQPINDYGAKVQAHVIDKY
B4: acyl carrier protein (AcpP) (natural protein, E. coli (endogenous in BL21(DE3)), UniProt P0A6A8 1-78, looked up)
chain: MSTIEERVKKIIGEQLGVKQEEVTNNASFVEDLGADSLDTVELVMALEEEFDTEIPDEEAEKITTVQAAIDYINGHQA

Experiments:
[1] = biological target: the molecule itself; assay: cross-linking
[2] = biological target: B1; assay: cross-linking
[3] = biological target: B1; assay: cross-linking; remark: listed apart in the source
[4] = biological target: B1; assay: co-purification

## B1
[1]
  binding result: binds

## B2
[2]
  binding result: binds

## B3
[3]
  binding result: binds

## B4
[4]
  stoichiometry N: 1 AcpP:MukB
